Assay [1] addresses T1, Jab1/CSN5 subunit of signalosome, recombinant (UniProt Q92905 1-334, limits assumed).
T1 construct: Produced in recombinant form as a control JAMM domain protein; the construct is not described
Description: protein-protein interaction assay with GST-BRCA1 fragments. On the procedure: (§1) Recombinant BRCA1 and BARD1 was purified as described (Chen, et al. (2002) J. Biol. Chem. 277:22085-22092). […] Gluthatione-sepharose beads (Pharmacia, Peapack, N.J.), previously equilibrated in binding buffer, were added to the samples and inverted for an additionnal 2 hours at 4° C. Beads were collected by centrifugation at 2000×g, 30 seconds, washed several times in binding buffer containing 500 mM KCl and 0.1% NP40 and resuspended in 2× SDS loading buffer. Proteins were resolved by SDS-PAGE and western blot analysis was performed using anti-FLAG® antibodies (SIGMA, St. Louis, Mo.).

Assay [2] has as its target T2, (His)6-FLAG®-BRCC36 protein (Homo sapiens, UniProt P46736 1-316).
T2 construct: Produced in bacteria and purified; also called recombinant BRCC36; C6.1A; not shown: (His)6 and FLAG tags
Description: GST pull-down: 5 µg (His)6-FLAG-BRCC36 with GST-BRCA1 fragment, anti-FLAG western blot. On the procedure:
as §1

The next assay deals with T3, truncated BRCA1 (1-509) (Homo sapiens (Human), UniProt P38398 1-509).
T3 construct: Stably expressed in a 293-derived cell line; keeps the nuclear localization signal and the Ring domain; also called BRCA1 truncation
Description: affinity purification of the truncated BRCA1 complex from a stable 293-derived cell line (co-purification; may be indirect).

T1 sequence (Q92905 whole entry, the tested form may be a part): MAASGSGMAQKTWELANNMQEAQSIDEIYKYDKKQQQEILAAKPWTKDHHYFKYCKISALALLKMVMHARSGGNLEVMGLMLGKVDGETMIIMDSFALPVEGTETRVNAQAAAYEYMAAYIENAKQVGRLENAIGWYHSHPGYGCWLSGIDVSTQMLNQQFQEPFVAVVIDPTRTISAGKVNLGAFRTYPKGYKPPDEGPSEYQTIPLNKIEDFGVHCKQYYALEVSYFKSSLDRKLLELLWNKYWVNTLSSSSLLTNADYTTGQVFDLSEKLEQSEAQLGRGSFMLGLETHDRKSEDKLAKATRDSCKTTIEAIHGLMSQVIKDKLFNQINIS
T2 sequence (P46736 whole entry): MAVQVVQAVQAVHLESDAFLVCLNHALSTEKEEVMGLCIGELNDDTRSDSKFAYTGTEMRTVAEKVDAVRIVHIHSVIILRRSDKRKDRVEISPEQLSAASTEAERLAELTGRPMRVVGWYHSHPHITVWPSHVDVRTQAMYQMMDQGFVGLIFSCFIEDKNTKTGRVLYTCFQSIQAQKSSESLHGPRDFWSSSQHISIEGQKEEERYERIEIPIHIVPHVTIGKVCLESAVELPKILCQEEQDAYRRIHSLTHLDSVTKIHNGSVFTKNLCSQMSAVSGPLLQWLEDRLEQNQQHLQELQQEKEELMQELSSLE

B1: GST-BRCA1 fragment F3 (BRCA1 residues 502-802) (other)
chain: LKRKRRPTSGLHPEDFIKKADLAVQKTPEMINQGTNQTEQNGQVMNITNSGHENKTKGDSIQNEKNPNPIESLEKESAFKTKAEPISSSISNMELELNIHNSKAPKKNRLRRKSSTRHIHALELVVSRNLSPPNCTELQIDSCSSSEEIKKKKYNQMPVRHSRNLQLMEGKEPATGAKKSNKPNEQTSKRHDSDTFPELKLTNAPGSFTKCSNTSELKEFVNPSLPREEKEEKLETVKVSNNAEDPKDLMLSGERVLQTERSVESSSISLVPGTDYGTQESISLLEVSTLGKAKTEPNKCV
notes: Produced in bacteria; also called fragment 3; not shown: glutathione S-transferase (GST) fusion tag
Consider B1, for which, in assay [1], the binding result was “no binding”.

B2: GST-BRCA1 fragment F1 (BRCA1 residues 1-324) (other)
chain: MDLSALRVEEVQNVINAMQKILECPICLELIKEPVSTKCDHIFCKFCMLKLLNQKKGPSQCPLCKNDITKRSLQESTRFSQLVEELLKIICAFQLDTGLEYANSYNFAKKENNSPEHLKDEVSIIQSMGYRNRAKRLLQSEPENPSLQETSLSVQLSNLGTVRTLRTKQRIQPQKTSVYIELGSDSSEDTVNKATYCSVGDQELLQITPQGTRDEISLDSAKKAACEFSETDVTNTEHHQPSNNDLNTTEKRAAERHPEKYQGSSVSNLHVEPCGTNTHASSLQHENSSLLLTKDRMNVEKAEFCNKSKQPGLARSQHNRWAGS
notes: Produced in bacteria; also called fragment 1; not shown: glutathione S-transferase (GST) fusion tag
Regarding B2, the binding result in assay [1] is on record as “no binding”.

B3: GST-BRCA1 fragment F5 (BRCA1 residues 1005-1313) (other)
chain: EHSMSPEREMGNENIPSTVSTISRNNIRENVFKEASSSNINEVGSSTNEVGSSINEIGSSDENIQAELGRNRGPKLNAMLRLGVLQPEVYKQSLPGSNCKHPEIKKQEYEEVVQTVNTDFSPYLISDNLEQPMGSSHASQVCSETPDDLLDDGEIKEDTSFAENDIKESSAVFSKSVQKGELSRSPSPFTHTHLAQGYRRGAKKLESSEENLSSEDEELPCFQHLLFGKVNNIPSQSTRHSTVATECLSKNTEENLLSLKNSLNDCSNQVILAKASQEHHLSEETKCSASLFSSQCSELEDLTANTNTQ
notes: Produced in bacteria; also called fragment 5; not shown: glutathione S-transferase (GST) fusion tag
On to B3, for which the binding result in assay [1] and in assay [2] was “no binding” throughout.

B4: GST-BRCA1 fragment F2 (BRCA1 residues 260-553) (other)
chain: KYQGSSVSNLHVEPCGTNTHASSLQHENSSLLLTKDRMNVEKAEFCNKSKQPGLARSQHNRWAGSKETCNDRRTPSTEKKVDLNADPLCERKEWNKQKLPCSENPRDTEDVPWITLNSSIQKVNEWFSRSDELLGSDDSHDGESESNAKVADVLDVLNEVDEYSGSSEKIDLLASDPHEALICKSERVHSKSVESNIEDKIFGKTYRKKASLPNLSHVTENLIIGAFVTEPQIIQERPLTNKLKRKRRPTSGLHPEDFIKKADLAVQKTPEMINQGTNQTEQNGQVMNITNSGH
notes: Produced in bacteria; also called fragment 2; not shown: glutathione S-transferase (GST) fusion tag
With B4, the binding result in assay [1] and in assay [2] was “no binding” throughout.

B5: GST-BRCA1 fragment F4 (BRCA1 residues 758-1064) (other)
chain: LQTERSVESSSISLVPGTDYGTQESISLLEVSTLGKAKTEPNKCVSQCAAFENPKGLIHGCSKDNRNDTEGFKYPLGHEVNHSRETSIEMEESELDAQYLQNTFKVSKRQSFAPFSNPGNAEEECATFSAHSGSLKKQSPKVTFECEQKEENQGKNESNIKPVQTVNITAGFPVVGQKDKPVDNAKCSIKGGSRFCLSSQFRGNETGLITPNKHGLLQNPYRIPPLFPIKSFVKTKCKKNLLEENFEEHSMSPEREMGNENIPSTVSTISRNNIRENVFKEASSSNINEVGSSTNEVGSSINEIGSS
notes: Produced in bacteria; also called fragment 4; not shown: glutathione S-transferase (GST) fusion tag
B5: the binding result in assay [1] is reported as “no binding”.

B6: BRE (other)
chain: MSPEVALNRISPMLSPFISSVVRNGKVGLDATNCLRITDLKSGCTSLTPGPNCDRFKLHIPYAGETLKWDIIFNAQYPELPPDFIFGEDAEFLPDPSALQNLASWNPSNPECLLLVVKELVQQYHQFQCSRLRESSRLMFEYQTLLEEPQYGENMEIYAGKKNNWTGEFSARFLLKLPVDFSNIPTYLLKDVNEDPGEDVALLSVSFEDTEATQVYPKLYLSPRIEHALGGSSALHIPAFPGGGCLIDYVPQVCHLLTNKVQYVIQGYHKRREYIAAFLSHFGTGVVEYDAEGFTKLTLLLMWKDFCFLVHIDLPLFFPRDQPTLTFQSVYHFTNSGQLYSQAQKNYPYSPRWDGNEMAKRAKGCQGSRDACSPWEQVLAFAVAKTGCKLLQPQRNWPSSRGPPWRASEGERTAQ
notes: also called BRCC45; BRCC45/BRE
Consider B6, for which the binding result in the assay with truncated BRCA1 (1-509) is “no binding”.
